Experimental data as given in article doi:10.1101/2021.06.02.446813 (bioRxiv, 2021).

B1: antibody 5317-10 (IgG1) (antibody, V domains shown)
VH: EVQLVQSGAEVKKPGESLTISCKASGYRFTSNWITWVRQMPGKGLEWMGRIDPDDPYSNSSPSFQGHATLSLDKAINTAYLHWSSLKASDTAMYYCARVNRVGDGPDFWGQGTLVTVSS
VL: DIVMTQSPLSLPVTPGEPASISCRSSQSLLFGNGYTYLNWYLQKPGQSPQLLIYLGSNRASGVPDRFSVSGSGTDFTLIISRVEAEDVGVYFCMQALQTPWTFGQGTKVEIK
B2: antibody 5317-4 (IgG1) (antibody, V domains shown)
VH: QVQLRLWGAGLLKPSETLSLTCAVSGGSFIDYYWTWIRQPPGKGLEWIGEINHFGGSGYNPSLKSRVSISVDTSKNQFSLRLNSVTAADTAIYYCARKPLLHSSVNPGAFDIWGQGTMLTVSS
VL: EIVLTQSPGTLSLSPGERAALSCRASQSVAGTYLAWYQQKPGQAPRLLIYGASSRATGIPDRFSGSGSGTDFTLTISRLEPEDFAVYYCQQYATSPRTFGQGTQLEIR

Columns and labels:
[1] = target: SARS-CoV-2 S1 protein (Sino Biological) (SARS-CoV-2, ancestral (Wuhan-Hu-1) …, UniProt P0DTC2); assay: ELISA
[2] = target: SARS-CoV-2 RBD-SD1 (residues 306-577) (Severe acute respiratory syndrome …, UniProt P0DTC2); assay: BLI

| Binder | binding result [1] | binding result [2] |
| --- | --- | --- |
| B1 | binds |  |
| B2 |  | binds |
